Measurements: US20140295012A1, “LATENT HUMAN IMMUNODEFICIENCY VIRUS REACTIVATION” (priority 2011, published 2014)
*1 amine or outer side, *2 acyl side, *3 side chain or, on linkers, in order; H or OH if unused. Where a SMILES comes first, the peptide text is derived from it. Bridges are numbered along the chain shown (N, C = ends). Roman numbers before positions name the chains, in order. [ ]: non-standard residue; d: D form. Actinocin(9to1) = Cc1c2oc3c(C)ccc(C(=O)[*:1])c3nc-2c(C(=O)[*:2])c(N)c1=O; NMeV = CN[C@H](C(=O)O)C(C)C; Sar = CNCC(=O)O

B1: HRF: flagellin polypeptide from Massilia timonae (SEQ ID NO:10), used as bacterial culture supernatant (protein)
chain: MASVINTNVPSLNSQRNLSTSQAQLNTSIQRLSSGMRINSAKDDAAGLAISDRMNSQIKGMTQATRNANDGVSMAQTAEGALSSSGDILQRIRELAVQSSNSSNSASDRKALQTEVTQLSSELNRIANTTEFNGQKLMDGTLGTANFQVGANAGQLISMTGANFNTSVYGNNQIAGDAAKAAATTSAAATGAFTISGYLGTSAAINTTDADTAKTIAASINNVTGDTGVTATARTDSFLKSAGGAHTMSLASDNSGTGEAVDISFTVGDGGDTADDYAAAISAFNAQTAKTGVTAEYDAVEKGLKLTNSAGENISLTNKAGSADIDMDTYAADGALMASALTLEAGDVGVANGRVTMDSEKSFSVAEGTDTGFELADSSALKSVAKIDISDFEGAQEAIKVADAALSAVNSQRAEYGALQSRFESAISNLSSSTENLSASRSRIVDTDFAAETAKMTRGQILQQAGTSMLAQANSLPNGVLSLLRG

What was measured:
Type in all cases: cell-based
[1] = system: chronically actively infected T cell lines (JNLG#35 and JNLG#44); test: Active HIV-1 transcription in chronically actively infected T cell lines JNLG#35 and JNLG#44 (GFP MCF); conditions: 48 hours
Procedure: Changes in HIV-1 transcription levels were determined after 48 hours by measuring GFP mean channel fluorescence intensity (GFP MCF). GFP MCF was plotted over the drug concentration for dactinomycin (FIG. 12A), the DNA intercalators daunorubicin (DM) (FIG. 12B) and rebeccamycin (RM) (FIG. 12C), as well as the transcription inhibitors ICRF-193 (FIG. 12D), DRB (FIG. 12E) and α-amanitin (FIG. 12F). The size of symbols indicates the respective cell viability in the sample (size range adjusted to 5-95%).
For this purpose, each of the compounds was titrated over a relevant range of concentrations on two chronically actively infected T cell lines (JNLG#35 and JNLG#44). These clonal cell lines are infected with a GFP-reporter virus. Forty eight hours after addition of the compounds, the effect of each compound on HIV-1 transcription was determined by flow cytometric analysis quantifying GFP mean channel fluorescence intensity (MCF).

[2] = system: NF-κB p50; test: NF-κB p50 activity in nuclear extracts of latent CA5 T cells (TransAM NF-κB family ELISA)
Procedure: (§1) FIGS. 7A-7D are graphs showing the kinetics of HRF-mediated induction of NF-κB activity. Jurkat or latently HIV-1 infected CA5 T cells were stimulated with optimal concentrations of PMA and HRF, and cells were harvested at the indicated time points. Nuclear extracts were generated and (FIGS. 7A and 7C) NF-κB p50 activity and (FIGS. 7B and 7D) NF-κB p65 activity were determined using the TransAM™ NF-κB family ELISA kit (Active Motif; Carlsbad, Calif.).
(§2) Cells were grown in RPMI medium supplemented with 10% FBS and 1% PSG to approximately 5×10^5 cells per milliliter. Cells were centrifuged and resuspended in fresh pre-warmed medium. PMA, HRF and/or JNKiV were added immediately at the indicated concentrations. The final cell density for the assay was 1×10^6 cells per milliliter. The culture flasks were kept in a humidified CO2 incubator at 37° C. For each time point, a 1 ml cell suspension was removed and immediately centrifuged at full speed in a tabletop centrifuge for 30 seconds. […] The protein concentration of the extracts was determined by using the BCA protein assay Kit (ThermoFisher). […] The absorbance at 595 nm was determined using a 96 well plate reader (Synergy HT, BIO-Tek; Winooski, Vt.).
(§3) NF-κB activity in nuclear extracts was quantified using the TransAM™ NF-κB family ELISA kit from Active Motif, Inc. (Carlsbad, Calif.) according to the manufacturer's instructions.

[3] = system: NF-κB p50 and p65; test: NF-κB p50 and p65 activity in PBMCs (TransAM NF-κB family ELISA); conditions: compared to PHA-L
Procedure: FIGS. 8A-8C show HRF induced NF-κB and cytokine expression in peripheral blood mononuclear cells (PBMCs). […] PBMCs were activated with optimal concentrations of either PHA-L or with HRF. Cells were harvested at the indicated time points. Nuclear extracts were generated and NF-κB p50 activity and NF-κB p65 activity were determined using the TransAM™ NF-κB family ELISA kit (Active Motif). […] PBMCs from four different healthy donors were stimulated with an anti-CD3/CD28 antibody combination and infected with a GFP reporter virus on day 4 post-stimulation. HIV-1 replication was monitored in the absence (C) or presence of HRF for 5 days and the achieved HIV-1 infection levels were determined by flow cytometric analysis for the percentage of EGFP-positive cells. All infections were normalized to the infection level in the untreated culture and the histogram represents the mean infection levels obtained in 4 donor cultures±standard deviation. […] Culture supernatants were collected after 24 hours and the concentrations of a panel of cytokines was determined by BioPlex analysis. […]
as §3

[4] = system: latently HIV-1 infected monocytic THP89GFP cells; test: HIV-1 reactivation in latently infected monocytic THP89GFP cells
[5] = system: NF-κB p50; test: NF-κB p50 activity in nuclear extracts of Jurkat cells (TransAM NF-κB family ELISA)
Procedure: as §1, §2, §3

[6] = system: Jurkat T cells; test: Protection of Jurkat T cells from poly (I:C) induced apoptosis (viability); conditions: compared with Salmonella typhimurium flagellin
Procedure: High concentrations of poly (I:C) trigger apoptosis in Jurkat cells and reduce cell viability. Viability of control cells (C) was compared to the viability of cell cultures treated with poly (I:C) (10 μg/ml) and increasing amounts of either flagellin or HRF.

[7] = system: NF-κB p65; test: NF-κB p65 activity in nuclear extracts of Jurkat cells (TransAM NF-κB family ELISA)
Procedure: as §1, §2, §3

| Molecule | effect on active HIV-1 infection / transcription (GFP MCF) [1] | NF-κB p50 activity after the first 4 hours [2] | NF-κB p50 and p65 activity peak [3] | HIV-1 reactivation [4] | NF-κB p50 activation amplitude compared to PMA stimulation ([5]; Jurkat cells) | duration of induced NF-κB activity in comparison to PMA ([5]; parental Jurkat T cells) | protection from induced apoptosis [6] | NF-κB p65 activation amplitude compared to PMA stimulation [7] |
| --- | --- | --- | --- | --- | --- | --- | --- | --- |
| Cc1c2oc3c(C)ccc(C(=O)N[C@@H]4C(=O)N[C@H](C(C)C)C(=O)N5CCC[C@H]5C(=O)N(C)CC(=O)N(C)[C@@H](C(C)C)C(=O)O[C@@H]4C)c3nc-2c(C(=O)N[C@@H]2C(=O)N[C@H](C(C)C)C(=O)N3CCC[C@H]3C(=O)N(C)CC(=O)N(C)[C@@H](C(C)C)C(=O)O[C@@H]2C)c(N)c1=O [dactinomycin] (I: T[dV]P[Sar][NMeV] / II: T[dV]P[Sar][NMeV]; ester I:1-I:C, II:1-II:C; linker I:N-II:N via Actinocin(9to1)) | did not boost active infection, but rather inhibited active infection |  |  |  |  |  |  |  |
| B1 |  | stabilizes at an elevated level | very high, but short-lived | reactivated latent HIV-1 infection | ~3 fold | less sustained | greater efficacy | ~3 fold |
